According to article PMC7351599:

Biological target: TMIEdel80–100-HA (UniProt Q8K467)
Assay: co-IP

percent reduction of co-IP against TMIE-HA: 80%
B1: MYC-TMC1 (natural protein)
chain: MLQIQVEEKEEDTEESSSEEEEDKLPRRESLRPKRKRTRDVINEDDPEPEPEDEETRKAREKERRRRLRRGAEEEEEIDEEELERLKALLDENRQMIATVKCKPWKMEKKIEVLKEAKKFVSENEGALGKGKGKKWFAFKMMMAKKWAKFLRDFENFKAACVPWENKIKAIESQFGSSVASYFLFLRWMYGVNMVLFVLTFSLIMLPEYLWGLPYGSLPRKTVPRAEEASAANFGVLYDFNGLAQYSVLFYGYYDNKRTIGWLNFRLPLSYFLVGIMCIGYSFLVVLKAMTKNIGDDGGGDDNTFNFSWKVFCSWDYLIGNPETADNKFNSITMNFKEAIIEERAAQVEENIHLIRFLRFLANFFVFLTLGASGYLIFWAVKRSQEFAQQDPDTLGWWEKNEMNMVMSLLGMFCPTLFDLFAELEDYHPLIALKWLLGRIFALLLGNLYVFILALMDEINNKIEEEKLVKANITLWEANMIKAYNESLSGLSGNTTGAPFFVHPADVPRGPCWETMVGQEFVRLTVSDVLTTYVTILIGDFLRACFVRFCNYCWCWDLEYGYPSYTEFDISGNVLALIFNQGMIWMGSFFAPSLPGINILRLHTSMYFQCWAVMCCNVPEARVFKASRSNNFYLGMLLLILFLSTMPVLYMIVSLPPSFDCGPFSGKNRMFEVIGETLEHDFPSWMAKILRQLSNPGLVIAVILVMVLTIYYLNATAKGQKAANLDLKKKMKQQALENKMRNKKMAAARAAAAAGGQ
